Series [1] has as its target T1, Dis3l2 (recombinant 6xHis) (Mus musculus, UniProt Q8CI75 Q8CI75:1-870).
T1 sequence: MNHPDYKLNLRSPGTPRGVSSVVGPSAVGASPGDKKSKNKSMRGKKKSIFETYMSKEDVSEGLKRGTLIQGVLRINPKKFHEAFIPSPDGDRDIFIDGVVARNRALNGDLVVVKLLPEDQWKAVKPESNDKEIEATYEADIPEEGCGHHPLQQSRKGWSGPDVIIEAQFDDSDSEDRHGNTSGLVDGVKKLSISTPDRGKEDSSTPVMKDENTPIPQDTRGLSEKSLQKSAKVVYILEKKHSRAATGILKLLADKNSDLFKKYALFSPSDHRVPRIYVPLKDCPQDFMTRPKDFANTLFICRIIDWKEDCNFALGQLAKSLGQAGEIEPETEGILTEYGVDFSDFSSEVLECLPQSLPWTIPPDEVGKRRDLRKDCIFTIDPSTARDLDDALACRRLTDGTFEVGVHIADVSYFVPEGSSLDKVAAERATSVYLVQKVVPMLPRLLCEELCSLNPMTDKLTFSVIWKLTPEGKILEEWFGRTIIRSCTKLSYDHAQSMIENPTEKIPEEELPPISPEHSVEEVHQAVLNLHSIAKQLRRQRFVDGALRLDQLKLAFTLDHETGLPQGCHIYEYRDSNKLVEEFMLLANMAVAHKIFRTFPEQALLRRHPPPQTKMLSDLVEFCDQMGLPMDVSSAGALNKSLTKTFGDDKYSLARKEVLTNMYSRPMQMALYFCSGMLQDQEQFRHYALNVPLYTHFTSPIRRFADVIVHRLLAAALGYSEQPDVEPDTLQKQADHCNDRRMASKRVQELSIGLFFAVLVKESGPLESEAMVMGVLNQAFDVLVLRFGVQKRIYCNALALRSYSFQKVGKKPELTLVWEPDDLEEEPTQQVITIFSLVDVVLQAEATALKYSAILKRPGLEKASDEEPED
The experiment in a line: cleavage_in_vitro; relative RNA stability difference versus non-uridylated; 0.05 mM MgCl2, 50 mM KCl, pH 7.5, 37 C. Conditions: tags: 6xHis, pETDuet-1, E. coli; label: 5'-32P; hairpin with 3' oligoU tail. Here is the method:
RNA degradation assays were performed in a total of 20 µl reaction using 6.25 nM 5' end-labeled pre-miR-21, pre-let-7a-1, or pre-let-7a-1+14U RNA (see Table 2) together with Dis3l2 and/or Lin28A. The reactions were set up in the RNA degradation buffer (20 mM HEPES-KOH pH 7.5, 50 mM KCl, 0.05 mM MgCl2, 1 mM DTT) and incubated at 37° C. for 90 minutes. For time-course assays; recombinant 6x-His Dis3l2 was incubated with radiolabeled pre-let-7a-1 or pre-let-7a-1+14U. Bands from three independent experiments were quantified using ImageJ (NIH) and plotted using Prism (Graphpad). Values were fitted to one-phase decay curves with error bars representing +/- s.d. (n=3). For Uridylation-stimulated degradation assays; in vitro uridylation assays were performed as described previously[20,26,27] except with the addition of 10 µM cold competitor uridine triphosphate and immunopurified Dis3l2 where indicated.

Another series has as its target T2, Lin28A (UniProt Q8K3Y3 Q8K3Y3:1-209).
T2 sequence: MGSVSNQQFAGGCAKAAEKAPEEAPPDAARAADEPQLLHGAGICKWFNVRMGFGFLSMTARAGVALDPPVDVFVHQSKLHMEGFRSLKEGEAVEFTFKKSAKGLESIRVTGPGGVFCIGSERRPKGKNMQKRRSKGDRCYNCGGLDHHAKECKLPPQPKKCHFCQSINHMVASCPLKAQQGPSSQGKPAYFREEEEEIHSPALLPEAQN
In words: EMSA. Conditions: tags: 6xHis, E. coli; label: 5'-32P; hairpin with 3' oligoU tail. The procedure: (§1) EMSA experiments were performed as described previously. Briefly, 1 nM of the indicated radiolabeled synthetic RNA was incubated in the binding buffer (50 mM Tris pH 7.6, 100 mM NaCl, 10 mM […], 1 unit/µl RNaseOUT) with varying concentrations of catalytically inert recombinant 6x-His Dis3L2 or recombinant 6x-His Lin28 in the absence of competitor RNA. Nucleoprotein complexes were resolved by 4-20% non-denaturing TBE gel electrophoresis (Biorad, #345-0059) and visualized by autoradiography.
For orientation: In EMSA bound probe runs differently from free probe, usually more slowly.

A further series addresses T3, Dis3l2 D389N (Flag) (Mus musculus, UniProt Q8CI75 Q8CI75:1-870, D389N).
T3 sequence: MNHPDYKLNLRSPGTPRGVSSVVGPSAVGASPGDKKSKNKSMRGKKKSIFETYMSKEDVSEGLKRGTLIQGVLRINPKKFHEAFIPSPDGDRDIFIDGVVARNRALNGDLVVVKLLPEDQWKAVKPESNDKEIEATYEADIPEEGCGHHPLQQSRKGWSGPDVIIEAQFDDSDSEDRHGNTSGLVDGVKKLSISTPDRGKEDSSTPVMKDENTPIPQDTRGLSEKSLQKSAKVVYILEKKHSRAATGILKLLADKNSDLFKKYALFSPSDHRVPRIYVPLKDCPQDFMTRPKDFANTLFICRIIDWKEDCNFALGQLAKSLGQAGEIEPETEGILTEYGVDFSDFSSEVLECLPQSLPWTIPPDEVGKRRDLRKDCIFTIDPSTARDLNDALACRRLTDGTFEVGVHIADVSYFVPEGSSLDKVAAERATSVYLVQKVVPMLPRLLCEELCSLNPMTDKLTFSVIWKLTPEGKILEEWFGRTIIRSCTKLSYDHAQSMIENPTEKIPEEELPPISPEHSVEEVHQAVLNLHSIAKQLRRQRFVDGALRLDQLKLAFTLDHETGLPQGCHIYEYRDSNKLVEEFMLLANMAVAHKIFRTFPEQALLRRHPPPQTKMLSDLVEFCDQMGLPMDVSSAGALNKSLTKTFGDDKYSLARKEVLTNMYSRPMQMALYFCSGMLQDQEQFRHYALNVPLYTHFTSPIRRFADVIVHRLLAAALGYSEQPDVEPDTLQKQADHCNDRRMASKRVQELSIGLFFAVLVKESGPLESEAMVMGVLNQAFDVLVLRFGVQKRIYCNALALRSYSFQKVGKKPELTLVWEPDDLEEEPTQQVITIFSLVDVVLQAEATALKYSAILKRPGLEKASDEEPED
The experiment in a line: EMSA; retains binding though catalytically inactive. Conditions: tags: Flag, immunopurified from V6.5 ESC; label: 5'-32P; hairpin with 3' oligoU tail.

A further series concerns the target T4, Dis3l2 D389N (Mus musculus, UniProt Q8CI75 Q8CI75:1-870, D389N).
T4 sequence: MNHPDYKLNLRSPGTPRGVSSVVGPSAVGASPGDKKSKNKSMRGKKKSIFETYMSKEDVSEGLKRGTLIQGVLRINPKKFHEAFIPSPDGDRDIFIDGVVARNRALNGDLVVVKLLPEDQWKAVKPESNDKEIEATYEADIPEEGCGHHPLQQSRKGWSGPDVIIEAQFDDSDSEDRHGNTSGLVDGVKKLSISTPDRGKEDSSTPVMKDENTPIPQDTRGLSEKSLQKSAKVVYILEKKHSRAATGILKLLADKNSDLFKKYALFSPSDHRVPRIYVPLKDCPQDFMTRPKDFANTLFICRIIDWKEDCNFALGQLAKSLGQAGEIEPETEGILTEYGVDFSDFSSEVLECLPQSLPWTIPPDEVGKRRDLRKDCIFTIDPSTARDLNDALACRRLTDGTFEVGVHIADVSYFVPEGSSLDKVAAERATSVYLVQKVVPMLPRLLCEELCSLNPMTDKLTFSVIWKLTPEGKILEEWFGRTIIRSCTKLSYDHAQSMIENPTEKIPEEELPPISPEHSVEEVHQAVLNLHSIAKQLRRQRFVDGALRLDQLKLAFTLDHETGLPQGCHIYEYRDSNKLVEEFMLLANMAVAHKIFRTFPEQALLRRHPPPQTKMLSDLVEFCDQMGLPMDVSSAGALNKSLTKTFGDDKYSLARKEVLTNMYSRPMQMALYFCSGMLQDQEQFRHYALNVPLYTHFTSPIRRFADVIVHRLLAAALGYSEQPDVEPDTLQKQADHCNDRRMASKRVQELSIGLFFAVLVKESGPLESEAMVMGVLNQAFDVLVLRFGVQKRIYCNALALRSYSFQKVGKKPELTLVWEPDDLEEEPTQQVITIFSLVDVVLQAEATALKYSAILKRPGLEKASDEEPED
In words: EMSA; 1 nM RNA, 50 mM Tris pH 7.6, 100 mM NaCl. Conditions: tags: 6xHis, E. coli; label: 5'-32P; hairpin with 3' oligoU tail. The procedure:
as §1

This note sets out measurements from patent publication US9994813, “Role for the perlman syndrome exonuclease Dis3l2 in the Lin28-let-7 pathway” (Children's Medical Center Corporation).

B1: mmu-pre-let-7a-1+14U (ssRNA)
RNA: UGAGGUAGUAGGUUGUAUAGUUUUAGGGUCACACCCACCACUGGGAGAUAACUAUACAAUCUACUGUCUUUCCUUUUUUUUUUUUUU
In the case of B1, the activity in series [1] is over 10 fold. The binding result with Lin28A, in the series with Dis3l2 D389N (Flag) and in the series with Dis3l2 D389N was “binds” each time.
